Measured values reported in patent US20190309284A1, “METHODS AND KITS FOR DYNAMIC TARGETED HYPERMUTATION” (Massachusetts Institute of Technology, priority 2018, published 2019).

Experiments:
[1] = promoter strength, Registry of Standard Biological Parts (Anderson collection); cited from earlier work
[2] = test system: Tet^R gene with inactive ACG start codon downstream of Kan^R on reporter plasmid; experiment: Start codon reversion mutation assay, tetracycline resistance (downstream of target); format: cell-based, E. coli; details: 24 h growth
Description: (§1) Mutation assay: To test mutagenesis rates, the control and mutagenic strains (Strep^R) carrying reporter plasmids (Amp^R) were streaked out on LB agar with 100 μg/mL streptomycin and 100 μg/mL ampicillin and grown at 37° C. for 24 hours. Then single colonies were picked in triplicate for each sample and grown in 5 mL LB with 100 μg/mL streptomycin,100 μg/mL ampicillin and 25 mM arabinose (with 10 μg/mL chloramphenicol if the strain contains MP6) at 37° C., 250 r.p.m. for 24 hours. Then 1 mL aliquots of each overnight were pelleted at 6000×g for 3 minutes and resuspended in 1 mL LB to remove arabinose. Then 50 μL of each resuspension was plated on LB agar plates with 50 μg/mL tetrazolium chloride and 200 μg/mL kanamycin, 20 μg/mL tetracycline, 100 μg/mL fosfomycin or 100 μg/mL rifampicin unless otherwise stated. 50 μL of a 100,000-fold dilution of each culture was also plated on LB agar with 100 μg/mL streptomycin, 100 μg/mL ampicillin and 50 μg/mL tetrazolium chloride. After incubating the plates at 37° C. for 48 hours, they were imaged by inverting the plates onto transparencies and scanning on a document scanner at a resolution of 400 d.p.i. The colonies were then counted using the software OpenCFU (3.9.0) (Geissmann Q., PLoS One. 2013; 8(2): e54072), with minimum colony radius set to 3, the maximum colony radius set to 50 and the regular threshold set to 4.
(§2) Mutation Assay: To assess mutagenesis rates, the control (Δung, rApo1, drApo1, and drApo1−T7; TABLE 8) and mutagenic strains (MutaT7 and MP6; TABLE 8) (Strep^R) carrying reporter plasmids (AmpR) were streaked on LB agar with 100 μg/mL streptomycin and 100 μg/mL ampicillin and grown at 37° C. for 24 h in order to obtain clones. Single colonies were picked in triplicate for each sample and used to inoculate 5 mL LB with 100 μg/mL streptomycin, 100 μg/mL ampicillin, and 25 mM arabinose (with 10 μg/mL chloramphenicol for the MP6 strain, TABLE 8), then shaken at 250 r.p.m. and 37° C. for 24 h to accumulate mutations during growth. 1 mL aliquots of each culture were pelleted at 6000×g for 3 min and resuspended in 1 mL LB to remove arabinose. Each resuspension was plated on LB agar plates with 50 μg/mL tetrazolium chloride (a metabolic contrast dye for visualizing colonies) and the antibiotics indicated below to analyze mutation rates and viability: • 50 μL of a 100,000-fold dilution of each resuspension was plated on LB agar with 100 μg/mL streptomycin, 100 μg/mL ampicillin, and 50 μg/mL tetrazolium chloride. For samples from the MP6 strain, owing to lower growth of that strain, 50 μL of a 10,000-fold dilution of each resuspension was plated to obtain a more accurate count. The colony counts from these plates were used to calculate the cell viability (i.e., the number of live, ampicillin resistant cells) in CFU/mL for each sample (FIG. 13D). • 50 μL of each resuspension was plated on LB agar plates with 200 μg/mL kanamycin and 50 μg/mL tetrazolium chloride. The colony counts from these plates were used to calculate the number of kanamycin resistant mutants in CFU/mL for each sample (FIG. 13E). The number of kanamycin resistant mutants in CFU/mL was divided by the number of live ampicillin resistant cells in CFU/mL for each sample to obtain the kanamycin resistant mutation frequency (FIG. 13B). • 50 μL of each resuspension was plated on LB agar plates with 20 μg/mL tetracycline and 50 μg/mL tetrazolium chloride. The colony counts from these plates were used to calculate the number of tetracycline resistant mutants in CFU/mL for each sample. The number of tetracycline resistant mutants in CFU/mL was divided by the number of live ampicillin resistant cells in CFU/mL for each sample to obtain the tetracycline resistant mutation frequency (FIG. 13B). • 50 μL of each resuspension was plated on LB agar plates with 100 μg/mL rifampicin and 50 μg/mL tetrazolium chloride. […]

E. coli genome [3] = experiment: Off-target mutagenesis, fosfomycin resistance assay; format: cell-based; details: 24 h growth
Description: as §1, §2

[4] = test system: Kan^R gene with ACG in place of ATG start codon on reporter plasmid; experiment: Start codon reversion mutation assay, kanamycin resistance (on-target); format: cell-based, E. coli; details: 24 h growth
Description: as §1, §2

E. coli genome [5] = experiment: Off-target mutagenesis, rifampicin resistance assay; format: cell-based; details: 24 h growth
Description: as §1, §2

E. coli = experiment: Cell viability (live ampicillin resistant cells) in mutation assay; format: cell-based; details: 24 h growth
Description: as §1
Mutation Assay: To assess mutagenesis rates, the control (Δung, rApo1, drApo1, and drApo1−T7; TABLE 8) and mutagenic strains (MutaT7 and MP6; TABLE 8) (Strep^R) carrying reporter plasmids (AmpR) were streaked on LB agar with 100 μg/mL streptomycin and 100 μg/mL ampicillin and grown at 37° C. for 24 h in order to obtain clones. Single colonies were picked in triplicate for each sample and used to inoculate 5 mL LB with 100 μg/mL streptomycin, 100 μg/mL ampicillin, and 25 mM arabinose (with 10 μg/mL chloramphenicol for the MP6 strain, TABLE 8), then shaken at 250 r.p.m. and 37° C. for 24 h to accumulate mutations during growth. […]

[6] = reporter plasmid No T7 promoter + filler DNA
[7] = reporter plasmid T7 promoter + filler DNA
[8] = reporter plasmid T7 promoter + terminator array

BBa_J23113: Anderson collection promoter, SEQ ID NO: 15 (DNA CTGATGGCTAGCTCAGTCCTAGGGATTATGCTAGC; listed as DNA, chemistry not fully specified)
Measured Strength [1]: 0.01

BBa_J23111: Anderson collection promoter, SEQ ID NO: 13 (DNA TTGACGGCTAGCTCAGTCCTAGGTATAGTGCTAGC; listed as DNA, chemistry not fully specified)
Measured Strength [1]: 0.58

BBa_J23108: Anderson collection promoter, SEQ ID NO: 10 (DNA CTGACAGCTAGCTCAGTCCTAGGTATAATGCTAGC; listed as DNA, chemistry not fully specified)
Measured Strength [1]: 0.51

BBa_J23107: Anderson collection promoter, SEQ ID NO: 9 (DNA TTTACGGCTAGCTCAGCCCTAGGTATTATGCTAGC; listed as DNA, chemistry not fully specified)
Measured Strength [1]: 0.36

BBa_J23103: Anderson collection promoter, SEQ ID NO: 5 (DNA CTGATAGCTAGCTCAGTCCTAGGGATTATGCTAGC; listed as DNA, chemistry not fully specified)
Measured Strength [1]: 0.01

BBa_J23118: Anderson collection promoter, SEQ ID NO: 20 (DNA TTGACGGCTAGCTCAGTCCTAGGTATTGTGCTAGC; listed as DNA, chemistry not fully specified)
Measured Strength [1]: 0.56

BBa_J23112: Anderson collection promoter, SEQ ID NO: 14 (DNA CTGATAGCTAGCTCAGTCCTAGGGATTATGCTAGC; listed as DNA, chemistry not fully specified)
Measured Strength [1]: 0.00

BBa_J23100: Anderson collection promoter, SEQ ID NO: 2 (DNA TTGACGGCTAGCTCAGTCCTAGGTACAGTGCTAGC; listed as DNA, chemistry not fully specified)
Measured Strength [1]: 1

BBa_J23114: Anderson collection promoter, SEQ ID NO: 16 (DNA TTTATGGCTAGCTCAGTCCTAGGTACAATGCTAGC; listed as DNA, chemistry not fully specified)
Measured Strength [1]: 0.10

BBa_J23105: Anderson collection promoter, SEQ ID NO: 7 (DNA TTTACGGCTAGCTCAGTCCTAGGTACTATGCTAGC; listed as DNA, chemistry not fully specified)
Measured Strength [1]: 0.24

BBa_J23117: Anderson collection promoter, SEQ ID NO: 19 (DNA TTGACAGCTAGCTCAGTCCTAGGGATTGTGCTAGC; listed as DNA, chemistry not fully specified)
Measured Strength [1]: 0.06

BBa_J23101: Anderson collection promoter, SEQ ID NO: 3 (DNA TTTACAGCTAGCTCAGTCCTAGGTATTATGCTAGC; listed as DNA, chemistry not fully specified)
Measured Strength [1]: 0.70

BBa_J23109: Anderson collection promoter, SEQ ID NO: 11 (DNA TTTACAGCTAGCTCAGTCCTAGGGACTGTGCTAGC; listed as DNA, chemistry not fully specified)
Measured Strength [1]: 0.04

BBa_J23102: Anderson collection promoter, SEQ ID NO: 4 (DNA TTGACAGCTAGCTCAGTCCTAGGTACTGTGCTAGC; listed as DNA, chemistry not fully specified)
Measured Strength [1]: 0.86

BBa_J23106: Anderson collection promoter, SEQ ID NO: 8 (DNA TTTACGGCTAGCTCAGTCCTAGGTATAGTGCTAGC; listed as DNA, chemistry not fully specified)
Measured Strength [1]: 0.47

BBa_J23110: Anderson collection promoter, SEQ ID NO: 12 (DNA TTTACGGCTAGCTCAGTCCTAGGTACAATGCTAGC; listed as DNA, chemistry not fully specified)
Measured Strength [1]: 0.33

BBa_J23115: Anderson collection promoter, SEQ ID NO: 17 (DNA TTTATAGCTAGCTCAGCCCTTGGTACAATGCTAGC; listed as DNA, chemistry not fully specified)
Measured Strength [1]: 0.15

BBa_J23104: Anderson collection promoter, SEQ ID NO: 6 (DNA TTGACAGCTAGCTCAGTCCTAGGTATTGTGCTAGC; listed as DNA, chemistry not fully specified)
Measured Strength [1]: 0.72

BBa_J23116: Anderson collection promoter, SEQ ID NO: 18 (DNA TTGACAGCTAGCTCAGTCCTAGGGACTATGCTAGC; listed as DNA, chemistry not fully specified)
Measured Strength [1]: 0.16

B1: drApoI (protein, UniProt P38483 1-229, looked up, variant E63Q)
C->U-editing enzyme APOBEC-1: MSSETGPVAVDPTLRRRIEPHEFEVFFDPRELRKETCLLYEINWGGRHSIWRHTSQNTNKHVQVNFIEKFTTERYFCPNTRCSITWFLSWSPCGECSRAITEFLSRYPHVTLFIYIARLYHHADPRNRQGLRDLISSGVTIQIMTEQESGYCWRNFVNYSPSNEAHWPRYPHLWVRLYVLELYCIILGLPPCLNILRRKQPQLTFFTIALQSCHYQRLPPHILWATGLK
Tet resistance Frequency [2, 6]: 1.1E−7 | Tet resistant CFU/mL [2, 6]: 1.8E+2 CFU/mL | Tet resistance Frequency [2, 7]: 4.6E−7 | Tet resistant CFU/mL [2, 7]: 6.3E+2 CFU/mL | Tet resistance Frequency [2, 8]: 2.1E−7 | Tet resistant CFU/mL [2, 8]: 3.7E+2 CFU/mL | Fos resistance Frequency (E. coli genome [3]; [6]): 2.0E−6 | Fos resistant CFU/mL (E. coli genome [3]; [6]): 3.3E+3 CFU/mL | Fos resistance Frequency (E. coli genome [3]; [7]): 2.7E−6 | Fos resistant CFU/mL (E. coli genome [3]; [7]): 3.5E+3 CFU/mL | Fos resistance Frequency (E. coli genome [3]; [8]): 1.9E−6 | Fos resistant CFU/mL (E. coli genome [3]; [8]): 3.4E+3 CFU/mL | Kan resistance Frequency [4, 6]: 3.8E−8 | Kan resistant CFU/mL [4, 6]: 6.0E+1 CFU/mL | Kan resistance Frequency [4, 7]: 5.2E−7 | Kan resistant CFU/mL [4, 7]: 6.5E+2 CFU/mL | Kan resistance Frequency [4, 8]: 6.6E−7 | Kan resistant CFU/mL [4, 8]: 1.2E+3 CFU/mL | Rif resistance Frequency (E. coli genome [5]; [6]): 4.5E−7 | Rif resistant CFU/mL (E. coli genome [5]; [6]): 7.6E+2 CFU/mL | Rif resistance Frequency (E. coli genome [5]; [7]): 3.0E−7 | Rif resistant CFU/mL (E. coli genome [5]; [7]): 4.0E+2 CFU/mL | Rif resistance Frequency (E. coli genome [5]; [8]): 3.4E−7 | Rif resistant CFU/mL (E. coli genome [5]; [8]): 5.9E+2 CFU/mL | Amp resistant CFU/mL (cell viability) (E. coli; [6]): 1.6E+9 CFU/mL | Amp resistant CFU/mL (cell viability) (E. coli; [7]): 1.3E+9 CFU/mL | Amp resistant CFU/mL (cell viability) (E. coli; [8]): 1.8E+9 CFU/mL
